B1: VH20-OKT3-Fc BiTE (bispecific antibody, part only; not given: anti-CD3 scFv, linkers and Fc, not shown: a dimerising Fc or GST)
chain (part 1 of 2), part: EVQLVESGGGVVQPGRSLRLSCAASGFTFSSYAMHWVRQAPGKGLEWVAAIWYDGSNQYYADSVKGRFTISRDDSTNTLYLQMNSLRAEDTALYYCAKSSYYDSSGYYFPYGYWGQGTLVTVSS
chain (part 2 of 2), part: HHHHHH
B2: VH20 (other)
VH: B1 chain (part 1 of 2), part
notes: Single-domain antibody (isolated VH domain) found by phage panning on the ALK G-rich domain antigen; For the internalization assay it was labelled with pHrodo Deep Red dye
B3: VH78 (other)
VH: EVQLVESGGGVVQPGRSLRLSCAASGFTFSSYAMHWVRQAPGKGLEWMGIIYPGDSDTRYSPSFQGHVTISRDDSTNTLYLQMNSLRAEDTATYYCARERGWQDAFDIWGQGTLVTVSS
notes: Single-domain antibody (isolated VH domain) found with the ALK G-T domain antigen

Assays:
[1] = biological target: T1, ALK extracellular domain expressed on the cell surface of 293T cells (293T-ALK) (Homo sapiens, UniProt Q9UM73); assay: cell-based or functional assay
[2] = biological target: cell surface ALK on neuroblastoma cells (IMR32, SY5Y-D3, SY5Y) (human) (UniProt Q9UM73); assay: cell-based or functional assay
293T cells [3] = assay: Internalization of pHrodo Deep Red labelled VH20, 293T; type: cell-based; conditions: pHrodo Deep Red conjugated VH20, 24 hours, flow cytometer
Protocol: (§1) VH20 internalization was also characterized. For the internalization studies, VH20 was conjugated with pHrodo™ Deep Red dye using the pHrodo™ Deep Red Antibody Labeling Kit (Thermo). The conjugated VH20 was incubated with 293T and 293T-ALK cells for 24 hours at different concentrations. VH20 internalization was measured by a flow cytometer.

293T cells [4] = assay: Flow cytometry binding of VHs to 293T cells (non-specific binding); conditions: VH at 1 μM, anti-FLAG-PE detection
Protocol: (§2) FIG. 1A provides a schematic of ALK. MAM1, LDLa, MAM2, G-rich, G-T domains and full-length ALK extracellular domain (ALK-Ecto) were expressed separately for phage panning. Briefly, 293T and 293T-ALK cells were stained with different VH antibodies at a concentration of 1 μM in […] PBS for 30 minutes on ice. The cells were washed with 1 mL PBS three times and incubated with anti-FLAG-PE antibody (1:200, BioLegend) for 30 minutes on ice. The FLAG tag comprises the sequence: DYKDDDDK (SEQ ID NO: 9). The stained cells were then washed with 1 mL PBS three times. Antibody binding was detected on a BD™ LSR II (BD Biosciences, San Jose, CA). Fluorescence activated cell sorting (FACS) data analysis was performed using FlowJo_V10_CL.
(§3) FIGS. 1B and 1C show the flow cytometry results with various VHs binding to ALK extracellular domain expressed on the cell surface of 293T cells (293T-ALK). VH9 and VH20 were identified with the G-rich domain antigen while VH5 and VH78 were identified with the G-T domain antigen.

SK-N-AS cells = assay: FACS binding to SK-N-AS cells (negative cell line); conditions: 1 μM
Protocol: (§4) The ability of VH20 bind ALK expressing cells was also studied by FACS. SK-N-AS (negative cell line), IMR32 (positive cell line), SY5Y-D3 (positive cell line) cells were stained with VH20 at a concentration of 1 μM in 200 μL PBS for 30 minutes on ice. The cells were washed with 1 mL PBS three times and incubated with anti-Flag-PE antibody (1:200, BioLegend) for 30 minutes on ice. The cells were again washed with 1 mL PBS three times. Antibody binding was detected on a BD™ LSR II (San Jose, CA). FACS data analysis was performed using FlowJo_V10_CL.

ALK = assay: BLItz competition with KTN0239-IgG for ALK; type: binding; conditions: Protein A biosensor, KTN0239-IgG loaded, then ALK, then VH20
Description: The ability of VH20 to compete with KTN0239 was also studied. KTN0239 is a humanized variant of KTN0125 (Sano et al. (2016) Cancer Res., 76(14 Suppl):Abstract2690) and can bind the G rich domain of ALK. A Protein A biosensor (18-5010, BLItz® system, ForteBio; Freemont, CA) was used to immobilization KTN0239-IgG. DPBS (pH=7.4) was used for the baseline and determine dissociation. The detection conditions used were (I) baseline 30 seconds; (II) loading KTN0239-IgG for 120 seconds; (III) baseline 30 seconds; (IV) association for 120 seconds with ALK; and (V) association for 120 seconds with VH20.

[5] = biological target: T1, ALK extracellular domain expressed on the cell surface of 293T cells (293T-ALK); assay: Flow cytometry binding of VHs to 293T-ALK cells; design: expressed in transfected cells; host or cells: 293T; conditions: VH at 1 μM, anti-FLAG-PE detection
Protocol: as §2, §3

[6] = test system: cell surface ALK on SY5Y-D3 cells; assay: FACS binding to SY5Y-D3 cells; conditions: 1 μM, positive cell line
Protocol: as §4

[7] = Aggregation by dynamic light scattering (DLS); type: physicochemical; conditions: 5 mg/mL in PBS, 37° C., day 0 to day 14
Protocol: The 4 VHs were studied by dynamic light scattering (DLS). Briefly, VH antibodies were buffer changed with PBS and filtered with a […] filter.
Antibody concentration was adjusted to 5 mg/mL. 500 μL samples were incubated at 37° C. for DLS. Samples were measured at day 0, day 1, day 4, day 7, and day 14 on Zetasizer Nano-ZS ZEN 3600 (Malvern Instruments Limited; Malvern, UK) to determine the size distributions of protein particles.

[8] = biological target: T2, cell surface ALK on IMR32 cells (Homo sapiens, UniProt Q9UM73); assay: FACS binding to IMR32 cells; conditions: 1 μM, positive cell line
T2 construct: endogenous in cells; host or cells: IMR32
Protocol: as §4

[9] = Size exclusion chromatography (SEC); type: physicochemical; conditions: Superdex 200 Increase 10/300 GL, DPBS
Protocol: VH20 was also studied by size exclusion chromatography (SEC). 200 μL (1 μg/mL) filtered samples were used for analysis. A Superdex® 200 Increase 10/300 GL column (GE Healthcare, Cat. No. 28990944) was used for the SEC. The column was calibrated with protein molecular mass standards of ferritin (440 kDa), aldolase (158 kDa), conalbumin (75 kDa), ovalbumin (44 kDa), carbonic anhydrase (29 kDa), and ribonuclease A (13.7 kDa). Protein was eluted by Dulbecco's phosphate-buffered saline (DPBS) buffer at a flow rate of 0.5 mL/minute.
Size exclusion chromatography (SEC) was also performed to characterize VH20-OKT3-Fc BiTE. Briefly, 200 μL (1 μg/mL) filtered samples were used for analysis. Superdex® 200 Increase 10/300 GL columns (GE Healthcare, Cat. No. 28990944) were used. The column was calibrated with protein molecular mass standards of ferritin (440 kDa), aldolase (158 kDa), conalbumin (75 kDa), ovalbumin (44 kDa), carbonic anhydrase (29 kDa), and ribonuclease A (13.7 kDa). Protein was eluted by DPBS buffer at a flow rate of 0.5 mL/minute.

[10] = biological target: T3, ALK-Fc, a fusion of the ALK extracellular domain and human IgG1 Fc (human, UniProt Q9UM73 19-1038); assay: ELISA, ALK-Fc coated, anti-Flag-HRP detection
T3 construct: not shown: human IgG1 Fc
Protocol: The VHs were further characterized. First, the binding affinities of the VHs were studied in an ELISA assay using a fusion protein comprising the ALK extracellular domain fused to the human IgG1 Fc (ALK-Fc). ELISA plates (Corning 3690; Tewksbury, MA) were coated with 50 μl antigen (5 μg/ml diluted with 1×PBS) at 4° C. overnight. The next day, blocking was performed with 150 μL 5% milk-PBS (Bio-RAD; Hercules, CA) at room temperature for two hours. Then, the plates were washed with 0.05% PBST three times. 3-fold serial diluted VH antibodies (in 5% PBS-Milk) was added into each well and incubated at room temperature for 1 hour and then washed with PBST 4 times. Next, 50 μL anti-Flag-HRP (1:1000 dilution in 5% PBS-Milk, Thermo; Waltham, MA) was added into each well and incubated at room temperature for 1 hour and then washed 5 times with PBST. 50 μL 3,3′,5,5′-tetramethylbenzidine (TMB) substrate (Sigma; St. Louis, MO) was added into each well and color was allowed to develop for 1-2 minutes before stopping with 50 μL H₂SO₄ (1M, Sigma). Plates were read at 450 nm absorbance. The ELISA results were analyzed using GraphPad Prism 9.0.2.

293T-ALK cells [11] = assay: Internalization of pHrodo Deep Red labelled VH20, 293T-ALK; type: cell-based; conditions: pHrodo Deep Red conjugated VH20, 24 hours, flow cytometer
Protocol: as §1

293T-ALK cells [12] = assay: Anti-ALK CAR-T cell cytotoxicity (LDH release); type: cell-based; conditions: CAR-T cells comprising the VH, effector:target 1.25:1 to 20:1, 48 hours
Protocol: The cytotoxicity of anti-ALK CAR-T cells against 293T and 293T-ALK cells was also studied. Anti-ALK CAR-T cells (effector cells) were incubated with 293T and 293T-ALK cells at the effector: target ratios of 1.25:1, 2.5:1, 5:1, 10:1 and 20:1 for 48 hours in a 96-well cell culture plate (Corning). The co-cultures of CAR-T cells with 293T cells were used as negative controls. Cytotoxicity was determined by detecting specific lactate dehydrogenase (LDH) released into the medium from the target cells with cytotoxicity LDH detection kit (Promega) according to the manufacturer's instructions. Percent cytotoxicity was calculated with the following formula: Cytotoxicity (%)=(Experimental lysis−Effector spontaneous lysis−Target spontaneous lysis)/(Target maximum lysis−Target spontaneous lysis)×100%. Anti-ALK CAR-T cells were co-cultured with 293T cells as negative controls.

T1 sequence (Q9UM73 19-1038): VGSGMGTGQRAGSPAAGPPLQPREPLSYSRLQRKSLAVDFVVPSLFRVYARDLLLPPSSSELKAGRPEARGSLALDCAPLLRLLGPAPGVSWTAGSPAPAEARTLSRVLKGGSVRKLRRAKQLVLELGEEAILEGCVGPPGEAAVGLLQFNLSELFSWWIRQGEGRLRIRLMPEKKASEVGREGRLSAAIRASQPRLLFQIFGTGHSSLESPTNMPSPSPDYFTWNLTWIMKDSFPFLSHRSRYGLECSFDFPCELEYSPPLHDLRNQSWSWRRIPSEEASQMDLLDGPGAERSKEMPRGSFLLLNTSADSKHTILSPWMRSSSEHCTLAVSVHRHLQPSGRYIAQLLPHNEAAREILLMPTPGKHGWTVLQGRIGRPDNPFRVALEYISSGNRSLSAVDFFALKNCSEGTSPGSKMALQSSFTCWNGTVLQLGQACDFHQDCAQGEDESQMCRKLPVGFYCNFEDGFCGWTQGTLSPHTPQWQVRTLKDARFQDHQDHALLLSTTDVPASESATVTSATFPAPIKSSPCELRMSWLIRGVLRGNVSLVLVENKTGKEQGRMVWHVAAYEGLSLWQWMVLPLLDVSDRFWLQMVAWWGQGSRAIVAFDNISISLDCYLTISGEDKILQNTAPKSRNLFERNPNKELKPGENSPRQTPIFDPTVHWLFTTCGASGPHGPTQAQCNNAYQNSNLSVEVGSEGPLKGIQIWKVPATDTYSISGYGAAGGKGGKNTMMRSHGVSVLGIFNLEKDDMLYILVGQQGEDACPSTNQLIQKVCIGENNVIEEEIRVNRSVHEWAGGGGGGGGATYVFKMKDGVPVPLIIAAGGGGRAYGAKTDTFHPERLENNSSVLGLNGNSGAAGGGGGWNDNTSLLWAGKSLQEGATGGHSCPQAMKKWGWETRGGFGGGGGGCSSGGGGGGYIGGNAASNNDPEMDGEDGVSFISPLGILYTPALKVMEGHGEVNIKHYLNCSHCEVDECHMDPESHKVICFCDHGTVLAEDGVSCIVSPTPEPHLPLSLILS
T3 sequence (Q9UM73 19-1038): as above
cell surface ALK on neuroblastoma cells (IMR32, SY5Y-D3, SY5Y) (human), sequence (Q9UM73 19-1620): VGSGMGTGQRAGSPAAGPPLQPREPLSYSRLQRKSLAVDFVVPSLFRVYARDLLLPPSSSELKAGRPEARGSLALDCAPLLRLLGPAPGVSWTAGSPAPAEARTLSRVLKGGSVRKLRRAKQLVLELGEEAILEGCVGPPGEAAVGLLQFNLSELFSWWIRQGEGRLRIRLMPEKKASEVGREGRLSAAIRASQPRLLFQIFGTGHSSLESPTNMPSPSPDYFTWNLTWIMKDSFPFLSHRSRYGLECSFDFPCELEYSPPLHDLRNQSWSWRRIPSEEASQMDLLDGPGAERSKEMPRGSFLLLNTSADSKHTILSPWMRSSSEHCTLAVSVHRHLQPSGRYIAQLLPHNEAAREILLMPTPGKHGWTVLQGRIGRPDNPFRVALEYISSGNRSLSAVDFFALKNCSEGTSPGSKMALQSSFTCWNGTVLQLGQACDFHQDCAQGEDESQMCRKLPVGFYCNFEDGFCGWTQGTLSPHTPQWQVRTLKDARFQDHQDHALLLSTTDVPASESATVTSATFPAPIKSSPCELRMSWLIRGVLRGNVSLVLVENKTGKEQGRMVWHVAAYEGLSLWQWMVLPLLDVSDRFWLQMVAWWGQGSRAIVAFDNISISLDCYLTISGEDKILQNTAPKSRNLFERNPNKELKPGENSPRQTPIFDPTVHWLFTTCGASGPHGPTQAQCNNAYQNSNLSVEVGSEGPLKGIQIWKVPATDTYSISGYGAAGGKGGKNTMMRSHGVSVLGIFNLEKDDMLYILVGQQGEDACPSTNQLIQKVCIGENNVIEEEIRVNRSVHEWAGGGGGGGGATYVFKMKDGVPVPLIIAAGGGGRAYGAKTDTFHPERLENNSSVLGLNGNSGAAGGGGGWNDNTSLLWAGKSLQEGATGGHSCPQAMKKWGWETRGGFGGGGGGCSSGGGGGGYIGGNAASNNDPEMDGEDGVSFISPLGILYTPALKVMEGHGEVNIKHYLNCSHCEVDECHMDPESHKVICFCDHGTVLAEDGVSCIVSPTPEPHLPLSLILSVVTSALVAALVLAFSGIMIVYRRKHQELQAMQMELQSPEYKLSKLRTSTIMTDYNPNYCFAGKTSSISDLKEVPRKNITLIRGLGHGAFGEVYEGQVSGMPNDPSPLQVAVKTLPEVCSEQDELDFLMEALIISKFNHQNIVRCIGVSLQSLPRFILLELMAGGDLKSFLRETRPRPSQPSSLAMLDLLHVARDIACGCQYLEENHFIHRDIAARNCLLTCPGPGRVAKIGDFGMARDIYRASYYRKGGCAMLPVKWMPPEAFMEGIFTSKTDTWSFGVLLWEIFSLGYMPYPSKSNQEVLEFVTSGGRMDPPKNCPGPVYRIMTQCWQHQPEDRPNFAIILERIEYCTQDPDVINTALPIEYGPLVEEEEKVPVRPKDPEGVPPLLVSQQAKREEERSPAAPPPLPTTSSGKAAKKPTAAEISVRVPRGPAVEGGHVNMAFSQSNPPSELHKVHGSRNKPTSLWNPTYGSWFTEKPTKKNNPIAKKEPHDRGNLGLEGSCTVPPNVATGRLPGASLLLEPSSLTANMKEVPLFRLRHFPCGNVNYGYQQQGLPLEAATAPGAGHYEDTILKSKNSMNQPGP
cell surface ALK on SY5Y-D3 cells, sequence (Q9UM73 19-1038 limits assumed): as the sequence (Q9UM73 19-1038) above
T1 sequence (Q9UM73 733-960 limits assumed): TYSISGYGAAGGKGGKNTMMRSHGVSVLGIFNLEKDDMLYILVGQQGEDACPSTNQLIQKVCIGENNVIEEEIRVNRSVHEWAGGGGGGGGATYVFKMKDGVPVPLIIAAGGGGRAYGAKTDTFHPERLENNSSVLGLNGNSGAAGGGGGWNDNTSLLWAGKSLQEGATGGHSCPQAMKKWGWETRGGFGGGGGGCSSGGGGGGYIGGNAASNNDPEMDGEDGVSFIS
T2 sequence (Q9UM73 19-1620): as the sequence (Q9UM73 19-1620) above

Row | Molecule | cytotoxicity IC50 (LDH release, activated Pan-T cells, E:T=4:1, 24 hours) [1] | cytotoxicity IC50 on IMR32 cells (LDH release, activated Pan-T cells, E:T=4:1, 24 hours) [2] | cytotoxicity IC50 on SY5Y cells (LDH release, activated Pan-T cells, E:T=4:1, 24 hours) [2] | non-specific internalization in 293T cells (293T cells [3]) | non-specific binding with 293T cells (293T cells [4]) | binding to SK-N-AS cells (SK-N-AS cells) | competition with KTN0239-IgG (ALK) | binding with 293T-ALK cells [5] | binding cell surface ALK on SY5Y-D3 cells [6] | aggregation by DLS [7] | binding cell surface ALK on IMR32 cells [8] | oligomeric state by SEC [9] | EC50 [10] | internalization into 293T-ALK cells (293T-ALK cells [11]) | cytotoxicity of anti-ALK CAR-T cells (293T-ALK cells [12])
1 | B1 | 0.01 nM | 0.1 nM | 0.15 nM |  |  |  |  |  |  |  |  |  |  |  | 
2 | B2 |  |  |  | no non-specific internalization was detected | no significant non-specific binding | not | not in competition | good binding | capable of binding | lower aggregation | capable of binding | dimer | ~0.4 nM | effectively internalized | 
3 | B3 |  |  |  |  | no significant non-specific binding |  |  | good binding |  |  |  |  | ~1.32 nM |  | greater cytotoxicity

Source: patent US20250101134A1, “ANAPLASTIC LYMPHOMA KINASE ANTIBODIES AND METHODS OF USE THEREOF” (The Children's Hospital of Philadelphia, priority 2022, published 2025)
